Target: Ino80 carrying a C-terminal 2xFlag-tag (S. cerevisiae) (UniProt P53115)
Sequence of UniProt P53115 (P53115 whole entry): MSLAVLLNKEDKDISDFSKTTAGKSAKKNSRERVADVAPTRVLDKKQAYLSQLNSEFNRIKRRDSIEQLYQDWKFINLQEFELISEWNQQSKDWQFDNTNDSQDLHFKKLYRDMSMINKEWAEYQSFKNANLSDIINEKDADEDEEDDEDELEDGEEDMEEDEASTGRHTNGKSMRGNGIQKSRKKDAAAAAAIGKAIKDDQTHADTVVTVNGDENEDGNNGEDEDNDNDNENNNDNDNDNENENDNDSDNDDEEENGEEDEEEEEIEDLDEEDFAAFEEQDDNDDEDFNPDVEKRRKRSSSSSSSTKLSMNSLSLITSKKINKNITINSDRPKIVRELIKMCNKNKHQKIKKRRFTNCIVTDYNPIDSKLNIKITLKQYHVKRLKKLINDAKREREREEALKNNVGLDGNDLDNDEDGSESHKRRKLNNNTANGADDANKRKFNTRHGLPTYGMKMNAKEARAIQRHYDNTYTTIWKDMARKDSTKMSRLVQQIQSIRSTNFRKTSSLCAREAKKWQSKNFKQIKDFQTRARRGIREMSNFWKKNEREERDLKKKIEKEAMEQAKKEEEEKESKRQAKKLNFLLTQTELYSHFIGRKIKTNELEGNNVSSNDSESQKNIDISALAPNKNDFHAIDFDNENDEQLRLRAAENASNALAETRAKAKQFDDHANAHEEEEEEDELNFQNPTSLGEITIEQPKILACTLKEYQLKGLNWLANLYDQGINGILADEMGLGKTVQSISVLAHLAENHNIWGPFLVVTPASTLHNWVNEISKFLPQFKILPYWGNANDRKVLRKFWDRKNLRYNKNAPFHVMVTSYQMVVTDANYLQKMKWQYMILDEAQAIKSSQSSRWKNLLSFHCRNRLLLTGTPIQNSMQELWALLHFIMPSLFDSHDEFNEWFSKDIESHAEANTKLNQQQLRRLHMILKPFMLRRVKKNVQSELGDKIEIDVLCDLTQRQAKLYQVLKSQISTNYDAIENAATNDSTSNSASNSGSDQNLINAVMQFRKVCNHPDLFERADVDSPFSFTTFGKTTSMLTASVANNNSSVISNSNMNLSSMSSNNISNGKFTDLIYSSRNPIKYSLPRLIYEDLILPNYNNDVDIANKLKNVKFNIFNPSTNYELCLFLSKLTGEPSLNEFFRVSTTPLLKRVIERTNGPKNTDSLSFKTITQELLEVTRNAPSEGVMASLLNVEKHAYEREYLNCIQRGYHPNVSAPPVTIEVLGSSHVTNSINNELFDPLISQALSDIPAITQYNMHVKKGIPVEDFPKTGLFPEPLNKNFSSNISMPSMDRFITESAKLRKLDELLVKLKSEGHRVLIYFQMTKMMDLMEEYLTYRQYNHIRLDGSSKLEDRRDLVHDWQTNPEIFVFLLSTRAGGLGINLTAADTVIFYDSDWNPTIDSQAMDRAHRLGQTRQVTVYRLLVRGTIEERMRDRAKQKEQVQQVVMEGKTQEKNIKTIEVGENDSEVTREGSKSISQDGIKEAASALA

- NADH-based ATPase activity of the WT INO80 complex with yGL167c-NCP601 mononucleosomes, with against without Reb1: 2 fold
B1: S. cerevisiae Reb1 with a Streptavidin tag at the C terminus (natural protein)
chain: MPSGHNDKNANQESVEEAVLKYVGVGLDHQNHDPQLHTKDLENKHSKKQNIVESSSDVDVNNNDDSNRNEDNNDDSENISALNANESSSNVDHANSNEQHNAVMDWYLRQTAHNQQDDEDDENNNNTDNGNDSNNHFSQSDIVVDDDDDKNKKDAGVGVDDDHQSMAMAAVAAAYTLSKNNNNNNSIANDSNSRKRQHDNGNNHENSQKKRKNNNDDDDRQIGNVDPELTTLGDADDNDTNNDVIDRDQLVHKAIIDADSITQHPDFQQYLNTAADTDDNEKLKHIKDHLMRTHGLNHQNKNHNDDTDDLSNSTKQYSELQKDSMLDSSLNKSRNYMEVLPKVISQDTQPHQQKSPSHDNEAGSVDNSEISQLLQSAATKASSLVSLSSSSATPSTSRSNNSKAFDKAEDAALERFINEYEAIERLTRQQVCERIWSSDRPKDNFWNNIYKVLPYRSSSSIYKHMRRKYHIFEQRGKWTAEEEQELAKLCAEKEGQWAEIGKTLGRMPEDCRDRWRNYVKCGTNRASNRWSVEEEELLKKVISDMLEEAQQQQSQLHPNLLEEEQHLLQDDQNDHRNNDEDDDDTASAAAAAAAAIQEQQQLLQQKQQDDDDAIAAAAAAASSSLGDNKDEDKPHDSLGIQLDDNSQNSMVPAPSATSTHSKSLSNTIRRHNNKLRKSLMGNGKLDFKDIINWTIVSERMGGTRSRIQCRYKWNKLVKREAIAKIQTVKDDDMLWIFEKLRDLGITEDSQVDWDELAALKPGMKLNGLELKLCYERMKKKVKGYKQKSINEISKELVDYFSSNISMKTEN
